From publication PMC10484734, “TLK1-mediated RAD54 phosphorylation spatio-temporally regulates Homologous Recombination Repair” (Nucleic Acids Research, 2023)

B1: recombinant human RAD51 [human] / His6-Thioredoxin-RAD54-Flag (recombinant human RAD54, wild type) [human] (parent complex)
chain 1: MAMQMQLEANADTSVEEESFGPQPISRLEQCGINANDVKKLEEAGFHTVEAVAYAPKKELINIKGISEAKADKILAEAAKLVPMGFTTATEFHQRRSEIIQITTGSKELDKLLQGGIETGSITEMFGEFRTGKTQICHTLAVTCQLPIDRGGGEGKAMYIDTEGTFRPERLLAVAERYGLSGSDVLDNVAYARAFNTDHQTQLLYQASAMMVESRYALLIVDSATALYRTDYSGRGELSARQMHLARFLRMLLRLADEFGVAVVITNQVVAQVDGAAMFAADPKKPIGGNIIAHASTTRLYLRKGRGETRICKIYDSPCLPEAEAMFAINADGVGDAKD
chain 2: MRRSLAPSQLAKRKPEGRSCDDEDWQPGLVTPRKRKSSSETQIQECFLSPFRKPLSQLTNQPPCLDSSQHEAFIRSILSKPFKVPIPNYQGPLGSRALGLKRAGVRRALHDPLEKDALVLYEPPPLSAHDQLKLDKEKLPVHVVVDPILSKVLRPHQREGVKFLWECVTSRRIPGSHGCIMADEMGLGKTLQCITLMWTLLRQSPECKPEIDKAVVVSPSSLVKNWYNEVGKWLGGRIQPLAIDGGSKDEIDQKLEGFMNQRGARVSSPILIISYETFRLHVGVLQKGSVGLVICDEGHRLKNSENQTYQALDSLNTSRRVLISGTPIQNDLLEYFSLVHFVNSGILGTAHEFKKHFELPILKGRDAAASEADRQLGEERLRELTSIVNRCLIRRTSDILSKYLPVKIEQVVCCRLTPLQTELYKRFLRQAKPAEELLEGKMSVSSLSSITSLKKLCNHPALIYDKCVEEEDGFVGALDLFPPGYSSKALEPQLSGKMLVLDYILAVTRSRSSDKVVLVSNYTQTLDLFEKLCRARRYLYVRLDGTMSIKKRAKVVERFNSPSSPDFVFMLSSKAGGCGLNLIGANRLVMFDPDWNPANDEQAMARVWRDGQKKTCYIYRLLSAGTIEEKIFQRQSHKKALSSCVVDEEQDVERHFSLGELKELFILDEASLSDTHDRLHCRRCVNSRQIRPPPDGSDCTSDLAGWNHCTDKWGLRDEVLQAAWDAASTAITFVFHQRSHEEQRGLR

Variants of: B1
Test: pull-down (silver-stained gel, quantified); read off a plot

ratio to parent | Variant
~0.58 | chain 2 T59D
~0.25 | chain 2 T41D
~0.41 | chain 2 T41D, chain 2 T59D
~0.27 | chain 2 T41D, chain 2 T59D, chain 2 T700D
~1.3 | chain 2 T700D

Variants of: B1
Test: as above
Remark: another data set of the same source

ratio to parent | Variant
~1.2 | chain 2 T700D
